# Measurements taken from patent US20110059504A1 (GENERAL HOSPITAL, published 2011).
# Changes are numbered by the printed parent chain. Numbers in names are those of the source.
# T1: human myostatin (human, UniProt O14793 267-375, biotinylated in selections and radioactive assays (site not stated))
# T1 construct: Phage ELISA used both unbiotinylated and biotinylated myostatin; also called biotinylated human myostatin; myostatin-biotin
# T1 sequence (looked up): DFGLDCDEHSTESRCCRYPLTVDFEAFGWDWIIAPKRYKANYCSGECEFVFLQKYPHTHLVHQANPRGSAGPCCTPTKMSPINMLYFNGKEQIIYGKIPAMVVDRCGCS
# B1: 61362-C6 (designed binder)
# chain: MTIPEIIIKVRGTQVVGSDMTVIVEFTNPLNEPLLFVWVHLDGPGVTRPMKKMFRIISPHATVQWEEVVRPWVSGHRKLIASMSIGFQAHVYGELDVQIQRRDYKDDDDK
# notes: group N1
# B2: 61363-C1 (G17D) (designed binder)
# chain: MTIPEIIIKVRGTQVVDSDMTVIVEFTDTVLEILRTVWVHLDGPGVTRPMKKMFPHIRPKVTVQWEEVVRPWVSGHRKLIASMLIASLRHVYGELDVQIQRRDYKDDDDK
# notes: group N3; G17D
# B3: 45927-E5 (designed binder)
# chain: MTIPEIIIKVRGTQVVGSDMTVIVEFTNPSNYRPCILRNVWVHLDGPGVTRPMKKMFKMIVYHSTVQWEEVVRPWVSGHRKLIASMSKFELSGTSSRGRVYGELDVQIQRRDYKDDDDK
# notes: group M3-Aext
# B4: 45927-A12 (designed binder)
# chain: MTIPEIIIKVRGTQVVGSDMTVIVEFTNPLRVSEQTLRNVWVHLDGLGVTRPMKKMFGGIRVHSTVQWEEVVRPWVSGHRKLIASMSYVAEYGEWTHYSVYGELDVQIQRRDYKDDDDK
# notes: group M3-Aext
# B5: 45927-A10 (designed binder)
# chain: MTIPEIIIKVRGTQVVGSDMTVIVEFTNPKRDTSVWLRNVWVHLDGPGVTRPMKKMFFTIGYPSTVQWEEVVRPWVSGRRKLIASMSPSILSKGNIGLGVYGELDVQIQRRDYKDDDDK
# notes: group M3-Aext; H76R (wild type scaffold numbering)
# B6: 39908-E1 (designed binder)
# chain: MTIPEIIIKVRGTQVVGSDMTVIVEFTNLWKEALRNVWMHLDGPGVTRPMKKMFREIATMSTVQWEEVVRPWVSGHRKLIASMTLRPWHVYGELDVQIQRRDYKDDDDK
# notes: group M3-A50; FG loop -TLRPW; V39M; also called M04 (clone ID)
# B7: 39633-D6 (designed binder)
# chain: MTIPEIIIKVRGTQVVGSDMTVIVEFTNPFKETLRNVWVHLDGPGVTRPMKKMFCEIRPNSIVQWEEVVRPWVSGHRKLIARCSLSPWHVYGELDVQIQRRDYKDDDDK
# notes: group M3-A50; ΔS82, M83R; also called M020 (clone ID)
# B8: 39908-A7 (designed binder)
# chain: B7 chain with T27S, C83M, S84T, S86R
# notes: group M3-A50; ΔS82, M83R; also called M24 (clone ID)
# B9: 39908-E5 (designed binder)
# chain: B7 chain with T27S, C55S, I62T
# notes: group M3-A50; ΔS82, M83R; also called M56 (clone ID)
# B10: 39908-A1 (designed binder)
# chain: B7 chain with T27S
# notes: group M3-A50; ΔS82, M83R; also called M02 (clone ID)
# B11: 39908-C6 (designed binder)
# chain: B7 chain with N36S
# notes: group M3-A50; ΔS82, M83R; also called M05 (clone ID)
# B12: 39908-F5 (designed binder)
# chain: B7 chain with S84Q, S86L
# notes: group M3-A50; ΔS82, M83R; also called M16 (clone ID)
# B13: 39908-C11 (designed binder)
# chain: B7 chain with T27S, C55S, P59T, S61A, I62T
# notes: group M3-A50; ΔS82, M83R; also called M22 (clone ID)
# B14: 39633-G6 (designed binder)
# chain: B6 chain with L29P, W30F, A33T, N36S, M39V, A58P, T59P, M60K, S61T
# notes: group M3-A50; FG loop printed -TLRPW (one residue deleted), no scaffold mutation printed; also called M18 (clone ID)
# B15: 39908-H4 (designed binder)
# chain: B7 chain with T27S, C55R, E56D, N60K, S61T, I62K, S84Q, S86L
# notes: group M3-A50; ΔS82, M83R; also called M015 (clone ID)
# B16: 39633-A5 (V46I) (designed binder)
# chain: B7 chain with T27S, V46I, I57V
# notes: group M3-A50; ΔS82, M83R, V46I
# B17: 39908-D2 (designed binder)
# chain: B7 chain with N36S, C55R, R58P, N60K, S61T, I62T
# notes: group M3-A50; ΔS82, M83R; also called M29 (clone ID)
# B18: 39908-B2 (designed binder)
# chain: B7 chain with N36S, C55R, R58P, N60K, S61T, I62T, S84Q, S86L
# notes: group M3-A50; ΔS82, M83R; also called M07 (clone ID)
# B19: 39908-A2 (designed binder)
# chain: B7 chain with C55R, E56D, N60K, S61T, I62K
# notes: group M3-A50; ΔS82, M83R; also called M03 (clone ID)
# B20: 39908-A3 (designed binder)
# chain: B7 chain with N36S, S61R
# notes: group M3-A50; ΔS82, M83R; also called M09 (clone ID)
# B21: 45927-E1 (designed binder)
# chain: MTIPEIIIKVRGTQVVGSDMTVIVEFTNPLKETLRNVWVHLDGPGVTRPMKKMFTGILQWSTVQWEEVVRPWVSGHRKLIASMSPHAWWQHHGNFSVYGELDVQIQRRDYKDDDDK
# notes: group M2-Aext
# B22: 39973-G3 (designed binder)
# chain: MTIPEIIIKVRGTQVVGSDMTVIVEFTNPLKETLRNVWVHLDGPGVTRPMKKMFEQIRESEYVQWEEVVRPWVSGHRKLIASMLTETRPHVYGELDVQIQRRDYKDDDDK
# notes: group M3-A
# B23: 39633-G1 (designed binder)
# chain: MTIPEIIIKVRGTQVVGSDMTVIVEFSNPFKETLRNVWVHLDGPGVTRPMKKMFREIPPKTTVQWEEVVRPWVSGHRKLIASMRTQYLIHLYGELDVQIQRRDYKDDDDK
# notes: group M1-A50; V91L
# B24: 39633-B3 (designed binder)
# chain: B23 chain with S27T, F30L, K31S, E32Q, R35S, N36A
# notes: group M1-A50; V91L
# B25: 39633-E2 (designed binder)
# chain: B23 chain with R55C, I57V, P58R, K60N, T61S, T62V
# notes: group M1-A50; V91L
# B26: 39633-C5 (designed binder)
# chain: B23 chain with S27T, N36S, E56V
# notes: group M1-A50; V91L; also called M34 (clone ID)
# B27: 39633-D5 (designed binder)
# chain: B23 chain with S27T, N36S, R84C, T85E, Q86P, Y87S, I89D, L91V
# notes: group M4-A50; also called 39633-D5/yes
# B28: 39633-F4 (designed binder)
# chain: B23 chain with R55C, P58R, K60N, T61S, T62I
# notes: group M1-A50; V91L
# B29: 39908-F8 (K52R) (designed binder)
# chain: B23 chain with S27T, N36S, K52R, K60E
# notes: group M1-A50; V91L, K52R
# B30: 39633-F5 (I3Y, M83I) (designed binder)
# chain: B23 chain with I3Y, S27T, N36S, M83I
# notes: group M1-A50; V91L, I3Y, M83I
# B31: 39973-B12 (designed binder)
# chain: MTIPEIIIKVRGTQVVGSDMTVIVEFKHDRYRYLQQVWVHLDGPGVTRPMKKMFKLIIFSYPVQWEEVVRPWVSGHRKLIASMRFMCPSHVYGELDVQIQRRDYKDDDDK
# notes: group M3-A
# B32: 45927-A11 (designed binder)
# chain: MTIPEIIIKVRGTQVVGSDMTVIVEFTNPLKETLRNVWVHLDGPGVTRPMKKMFQKIPGCSTVQWEEVVRPWVSGHRKLIASMSMLGLPFSLRFIPVYGELDVQIQRRDYKDDDDK
# notes: group M1-Aext
# B33: 45927-B7 (M50T) (designed binder)
# chain: B32 chain with M50T, Q55L
# notes: group M1-Aext; M50T
# Target: T2, streptavidin beads (M-280 beads) (UniProt P22629 37-163, limits assumed)
# T2 construct: Capture beads used as negative control
# T2 sequence (P22629 37-163 limits assumed): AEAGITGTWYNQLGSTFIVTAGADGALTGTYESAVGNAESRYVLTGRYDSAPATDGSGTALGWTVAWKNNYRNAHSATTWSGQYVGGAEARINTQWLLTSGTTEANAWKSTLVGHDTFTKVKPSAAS
# Experiment: radioactive equilibrium binding assay
row,Binder,binding result
1,B1,no binding
2,B2,no binding

# Target: T1, human myostatin
# Experiment: radioactive equilibrium binding assay
# Protocol: (§1) Affinities of selected F13β2 binders to biotinylated myostatin were determined in radioactive equilibrium binding assay (FIGS. 11A and 11B; Table 3). ³⁵S-labeled binder proteins from selection pools and single clones were produced in vitro in a rabbit reticulocyte lysate translation kit (Ambion) and purified on M2-agarose (Sigma). Varying concentrations of biotinylated human myostatin (0-100 nM) or other proteins (protein 1: 100 nM; peptide 1: 250 nM; protein 2: 50 nM) were incubated with a constant concentration of the purified binder protein (1 or 2 nM) at 30° C. for 30 min in buffer B (1×PBS, 0.02% Triton X-100 [pH 7.4]). The receptor-binder complexes were captured by using 25 μl of M280 or Protein A (Dynal) (protein 2) magnetic beads for 10 min at room temperature on a Kingfisher instrument (Thermo Fisher Scientific). The beads were washed five times with 100 μl buffer B, and the amount of ³⁵S-methionine remained on the beads was measured by scintillation counting. Data were analyzed by using the GraphPad Prism software (GraphPad Software, Inc., San Diego, Calif.), fitted with a one-site, nonlinear binding equation. For inhibition assay the binding of ³⁵S-labeled proteins to 20 or 25 nM of biotinylated human myostatin was performed in the presence of varying concentrations of inhibitor (human activin receptor IIB/Fc chimera (R&D Systems, Minneapolis, Minn.) (0-250 nM); protein 1 (100 nM), peptide 1 (250 nM), protein 2 (50 nM); proteins, produced in E. coli, M17, M7, M29, M21, M1-1, WT F13β2 (500 nM)).
Binder,B max [%],Kd [nM]
B3,8.36,64.1
B4,3.08,1.47
B5,8.07,16.1
B6,40.2,14.8
B7,79.6,20.3
B8,109,20.1
B9,77.8,21.9
B10,50.2,12
B11,52.2,19.7
B12,67.2,27.1
B13,73.7,17
B14,75.1,19.7
B15,68.6,15.8
B16,78.3,19.4
B17,68.8,23.3
B18,75.9,27.1

Binder,B max [%],Kd [nM]
B19,68.5,15.2
B20,57.2,11
B21,4.57,6.04
B22,1.81,22
B23,52,38.9
B24,6.14,9.93
B25,21,27.3
B26,93,30.8
B27,6.91,8.69
B28,28.5,26.8
B29,45.7,36.6
B30,69.7,32.1
B31,7.77,34.5
B32,41.2,65
B33,46.4,57.6

# Target: T3, human β-NGF (human, UniProt P01138 122-241, biotinylated (site not stated))
# T3 construct: also called biotinylated human β-NGF; nerve growth factor
# T3 sequence (P01138 122-241 limits assumed): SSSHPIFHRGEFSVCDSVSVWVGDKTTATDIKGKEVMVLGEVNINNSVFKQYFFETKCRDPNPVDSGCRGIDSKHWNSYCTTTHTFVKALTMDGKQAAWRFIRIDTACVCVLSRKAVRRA
# Experiment: radioactive equilibrium binding assay
# Protocol: as §1
# Selected F13β2 binders were tested for binding to biotinylated β-NGF in radioactive equilibrium binding assay (FIGS. 21A and 21B; Table 4) according to the procedure described for myostatin binders. NGF at concentrations up to 100 nM was incubated with a constant concentration of the purified binder protein (1 or 2 nM) at 30° C. for 1 hour. Affinities to human β-NGF differed greatly between various binders.
Binder,B max [%],Kd [nM]
B1,5.5,24
B2,1.8,2.8
